Series [1] deals with thrombin generation in human platelet rich plasma. As to the kind of experiment: Thrombin generation by calibrated automated thrombography (CAT) in ADP-activated human PRP. The format is cell-based. To be noted: for peak thrombin concentration / time to peak thrombin: 20 uM ADP-activated human platelets, equal molar concentrations. As to the method:
Shown are thrombograms of nanomolar thrombin that were generated in human platelet rich plasma activated with […].
Thrombin generation in citrated human platelet rich plasma (PRP) was quantified by calibrated automated thrombography (CAT) using the Thrombinoscope system (Synapse), according to methods developed by Hemker et al. Aliquots of PRP were incubated with agents for 15 min at room temperature, and then for 5 min at 37° C. in wells of 96-well plates. Thrombin generation was initiated by addition of 0.5 pM tissue factor and CaCl2 to 16.7 mM and monitored in a microtiter plate fluorometer (Fluoroskan Ascent, Thermo Electron Corp., Vantaa, Finland). Thrombograms (nM thrombin generated vs. time) were generated using the Thrombinoscope software, as were key thrombin generation parameters: lag time to onset of thrombin generation (min), peak thrombin concentration (nM), time to peak thrombin (min), and endogenous thrombin potential (ETP; integrated area under the thrombogram curve).
The effects of APT102, annexin V, APT102+annexin V, and APT402 at equal molar concentrations on thrombin generation from 20 uM ADP-activated human platelets were compared using CAT assays (FIG. 3). […] These features were mimicked by APT402.

For series [2] the following is noted: comparison value for annexin V; cited from earlier work.
The next series has as its system arterial thrombosis. Kind of series: Electrical injury model (EIM) of arterial thrombosis in rabbits. The format is in vivo, rabbit. As to the method:
Rabbits were randomized into the following eleven groups with the treatments initiated 30 min before electrical injury.
Electrical injury generated occlusion in 60% of the rabbits treated with saline within 2 h. Average thrombosis weight was 7.8 mg.

For series [3] the following is noted: rabbit, in vivo, iv, 0.4 mg/kg.
In series [4] the test system is IVC fibrosis (collagen deposition). Kind of series: Chronic murine electrolytic injury model (EIM) of DVT, fibrosis. To be noted: mice, 1.0 mg/kg ip bolus daily for 14 days. The format is in vivo. An excerpt: In a chronic fibrotic study, mice were randomized and blinded into the following groups (n=5-12/group).
Collagen deposition was stained with Masson's trichrome 14 days post DVT induction.

The test system of the next series is thrombin generation. Kind of series: Thrombin generation during and after bolus plus infusion in rabbits. It is filed as in vivo, rabbit. The conditions noted are these: for thrombin generation: 0.2 mg/kg bolus then 24 μg/kg/min for 120 min.
Series [5] can be described thus: Malachite green assay of enzymatic kinetic parameters. It is filed as biochemical.
In series [6] the test system is human platelet-rich plasma (PRP). Kind of series: ADP-induced human platelet aggregation in platelet-rich plasma. It is filed as cell-based. The conditions noted are these: ADP-activated, light transmission, 6 min. As to the method:
FIGS. 1A and 1B show the effect of apyrase APT102 used as such and of a fusion protein thereof, APT402, on platelet aggregation in an ex vivo reaction mixture comprising human platelet-rich plasma (PRP) activated with 20 μM ADP. […] X axis is the assay time (6 min duration), Y axis is the light transmission. […] Arrows indicate addition of ADP and apyrases.
The inhibitory activity on FX activation was assayed using peripheral blood mononuclear cells (PBMC) purified from normal human donors and anesthetized rabbits by standard methods. […] As expected, APT102 had no effect on PBMC pro-coagulant activity.

Series [7] can be described thus: Haemostasis parameters in healthy rabbits with bolus plus infusion. The format is in vivo, rabbit.
The subject of series [8] is rabbit platelet rich plasma. As to the kind of experiment: ADP-induced platelet aggregation in rabbit PRP during and after bolus plus infusion. The format is in vivo. To be noted: for ADP-induced (50 uM) platelet aggregation in rabbit PRP: 0.2 mg/kg bolus then 24 μg/kg/min for 120 min.
Series [9] concerns thrombotic sites of injured arteries. The conditions noted are these: rabbit, in vivo.
Method: A. APT402 was conjugated to the fluorescent dye (LS288); B. Fluorescent intensity in the injured artery of the rabbit treated with APT402 at 0.2 mg/kg bolus followed by 12 mg/kg/min for 120 min. Each bar represents the mean of 3 readings. C.
A near infra-red (NIR) fluorescent dye (LS288, Ex/Em 773/793) in methanol was conjugated to the functional amines of APT402 (˜1:1). […] For in vivo imaging of the thrombus by fluorescent molecular tomography (FMT), a custom built, fiber-based, portable, video-rate system was used as described (CITE).
A short description of series [10]: Pharmacokinetics (ADPase activity) after single IV bolus in rabbits.
A further series concerns platelet aggregation. Kind of series: Ex vivo ADP-induced platelet aggregation after single IV bolus in rabbits. To be noted: rabbit, 0.40 mg/kg IV bolus.
Series [11] is described as follows: PK (ELISA) with bolus plus continuous IV infusion in rabbits. To be noted: rabbit, bolus plus 120 min infusion; significantly decreased 60 min after discontinuation. A general note: ELISA stands for enzyme-linked immunosorbent assay.
For series [12] the following is noted: rabbit, in vivo, iv, 0.2 mg/kg.
A further series has as its system IVC thrombosis. The format is in vivo, mice. To be noted: for reduction of thrombus weight: mice. Here is the method: An electrical injury model of venous thrombosis was used for acute study (Diaz J A et al. Thromb Haemost. 104: 366-375, 2010.
Mice were randomized into the following four groups (n=10/group).
The EIM consistently generated IVC thrombosis in all mice with the mean thrombus weight of 22.5 mg. Thrombus weight, BT, APTT and TCT were measured 48 h post DVT induction.

[13] abbreviates: rabbit EIM, group doses of the 2nd table.
Setting [14] is: rabbit, bolus plus 120 min infusion, significantly decreased 60 min after discontinuation.

We go through five molecules from US20230119254A1, “SYNERGISTIC AND TARGETING COMPOSITIONS FOR TREATMENT OF ARTERIAL AND VENOUS THROMBOSIS” (AstraZeneca AB, priority 2020, published 2023).

“Also recorded” adds a separate entry of the source. Where two headings read alike, the source gives them in different places.

Turning to “annexin V: protein that binds phosphatidyl serine on activated platelets in competition with prothrombinase complex”, in [1], the peak thrombin concentration result is on record as “modestly decreasing” and the “time to peak thrombin” value was “significantly increased”. Also, in [2], the distribution half-life is on record as 5 min and the elimination half-life is 20 min.

In the case of `COC(=O)[C@H](c1ccccc1Cl)N1CCc2sccc2C1` [clopidogrel, Clopidogrel, reference compound], the “bleeding time (BT)” value in the series on arterial thrombosis (rabbit, in vivo) is listed as “prolonged”.

`CC[C@H](C)[C@H](NC(=O)[C@H](CCC(=O)O)NC(=O)[C@H](CCC(=O)O)NC(=O)[C@H](Cc1ccccc1)NC(=O)[C@H](CC(=O)O)NC(=O)CNC(=O)[C@H](CC(N)=O)NC(=O)CNC(=O)CNC(=O)CNC(=O)CNC(=O)[C@@H]1CCCN1C(=O)[C@H](CCCNC(=N)N)NC(=O)[C@@H]1CCCN1C(=O)[C@H](N)Cc1ccccc1)C(=O)N1CCC[C@H]1C(=O)N[C@@H](CCC(=O)O)C(=O)N[C@@H](CCC(=O)O)C(=O)N[C@@H](Cc1ccc(O)cc1)C(=O)N[C@@H](CC(C)C)C(=O)O` [bivalirudin, Bivalirudin, reference compound]: in the series with arterial thrombosis (setting [13]), the partial thromboplastin time result is on record as “increased” and the prothrombin time result is “increased”. Besides, in the series with arterial thrombosis (rabbit EIM, group doses of the 2nd table, BT measurement ceiling 5 min), the “bleeding time (BT)” value is recorded as “prolonged”.

For the molecule `CCCSc1nc(N[C@@H]2C[C@H]2c2ccc(F)c(F)c2)c2nnn([C@@H]3C[C@H](OCCO)[C@@H](O)[C@H]3O)c2n1` [ticagrelor, reference compound], the “occlusion within 2 h” value in the series with arterial thrombosis (rabbit EIM, ticagrelor 10 mg/kg oral, bivalirudin 5 mg/kg IV bolus then 5 mg/kg/h) is reported as “completely prevented occlusion”. Moreover, in the series with arterial thrombosis (rabbit, in vivo), the “bleeding time (BT)” value is “prolonged” and the partial thromboplastin time entry is “increased”.

B1: APT402: fusion protein of apyrase APT102, 20 amino acid linker and annexin V (SEQ ID NO: 7-10) (protein)
chain: MMSFVSLLLVGILFHATQADAPEVLPPGLKYGIVLDAGSSGTRVYVYQWPAEKENNTGVVSQTFKCSVKGSGISSYGNNPQDVPRAFEECMQKVKGQVPSHLHGSTPIHLGATAGMRLLRLQNETAANEVLESIQSYFKSQPFDFRGAQIISGQEEGVYGWITANYLMGNFLEKNLWHMWVHPHGVETTGALDLGGASTQISFVAGEKMDLNTSDIMQVSLYGYVYTLYTHSFQCYGRNEAEKKFLAMLLQNSPTKNHLTNPCYPRDYSISFTMGHVFDSLCTVDQRPESYNPNDVITFEGTGDPSLCKEKVASIFDFKACHDQETCSFDGVYQPKIKGPFVAFAGFYYTASALNLSGSFSLDTFNSSTWNFCSQNWSQLPLLLPKFDEVYARSYCFSANYIYHLFVNGYKFTEETWPQIHFEKEVGNSSIAWSLGYMLSLTNQIPAESPLIRLPIEPPVGSTSGGSTSGGSTSGSGATIAQVLRGTVTDFPGFDERADAETLRKAMKGLGTDEESILTLLTSRSNAQRQEISAAFKTLFGRDLLDDLKSELTGKFEKLIVALMKPSRLYDAYELKHALKGAGTNEKVLTEIIASRTPEELRAIKQVYEEEYGSSLEDDVVGDTSGYYQRMLVVLLQANRDPDAGIDEAQVEQDAQALFQAGELKWGTDEEKFITIFGTRSVSHLRKVFDKYMTISGFQIEETIDRETSGNLEQLLLAVVKSIRSIPAYLAETLYYAMKGAGTDDHTLIRVMVSRSEIDLFNIRKEFRKNFATSLYSMIKGDTSGDYKKALLLLCGEDD
modifications: CDS (1)..(2397)
As for B1, in series [3], the “elimination half-life (t1/2)” value is 360 min. Besides, in [4], the “deaths, increased bleeding or gross side effects” value was “no deaths or increased bleeding or gross side effects”. Also, the “reduction of collagen deposition” value in series [4] (Masson's trichrome 14 days post DVT induction) stood at 33%. In the series on thrombin generation (at 60 and 110 min), the thrombin generation entry was “effectively attenuated”. The thrombin generation entry in the series with thrombin generation (at 180 min) was “returned to the baseline level”. For the same molecule, in the series with thrombin generation (setting [14]), the “inhibition of thrombin generation over time” value is on record as “maintained up to 120 min during infusion”. In addition, the “enzymatic kinetic parameters for ATP and ADP” value in series [5] is listed as “comparable to those of APT102”. In series [1], the peak thrombin concentration result is recorded as “mimicked” and the “time to peak thrombin” value is given as “mimicked”. Also, the “inhibition of thrombin generation” value in series [1] (ADP-activated human PRP) is reported as “comparable inhibitory effects”. In [6], the “inhibition of ADP-induced human platelet aggregation” value is given as “dose-dependently inhibits; also recorded: comparable potency to APT102”. In addition, in [7], the “ACT vs control animals” value is reported as “no differences”, the “PT vs control animals” value is “no differences”, the “aPTT vs control animals” value is recorded as “no differences” and the “bleeding time vs control animals” value is on record as “no differences”. Besides, in series [7], the “platelet counts vs control animals” value was “no differences”. Besides, in [8] (at 60 and 110 min), the “ADP-induced (50 uM) platelet aggregation in rabbit PRP” value is given as “effectively inhibited”. The “ADP-induced (50 uM) platelet aggregation in rabbit PRP” value in series [8] (at 180 min) is “returned to the baseline level”. Further, in [8] (setting [14]), the “inhibition of ADP-induced platelet aggregation over time” value is given as “maintained up to 120 min during infusion”. For the same molecule, in series [9], the binding to thrombus result is recorded as “bound to thrombus” and the “signal in the non-injured control carotid” value was “no increased signal”. Also, the “extension of elimination half-life compared to annexin V” value in series [10] (6 h vs 20 min) is reported as 18 fold. In addition, the distribution phase half-life in series [10] (rabbit, 0.40 mg/kg IV bolus) is 30 min. The “time of maximal activity in the plasma after administration” value in series [10] (rabbit, 0.40 mg/kg IV bolus, ADPase activity) was 30 min. Besides, the “thrombus weight compared with any other treatments” value with arterial thrombosis (rabbit EIM, 24 ug/kg/min) is “lowest thrombus weight”. Moreover, the “occlusion within 2 h” value in the series on arterial thrombosis (rabbit EIM, 0.2 mg/kg IV bolus then 12 ug/kg/min) is reported as “completely prevented occlusion”. The “occlusion within 2 h” value in the series on arterial thrombosis (rabbit EIM, 0.2 mg/kg IV bolus then 24 ug/kg/min) was “completely prevented occlusion”. The thrombosis weight result with arterial thrombosis (rabbit EIM, infusion 4, 12, 24 μg/kg/min) is recorded as “dose-dependently reduced”. In the series with arterial thrombosis (rabbit, in vivo), the “bleeding time (BT)” value is reported as “did not affect”, the “blood pressure (mean arterial pressure)” value is recorded as “did not affect”, the heart rate result is recorded as “did not affect” and the partial thromboplastin time entry is reported as “did not affect”. Further, the prothrombin time entry in the series with arterial thrombosis (rabbit, in vivo) is “did not affect”. For the same molecule, the “inhibition of 20 μM ADP-induced ex vivo platelet aggregation” value with platelet aggregation (1 h after dosing) is given as 90%. Further, in the series with platelet aggregation (6 h after dosing), the “inhibition of 20 μM ADP-induced ex vivo platelet aggregation” value is listed as 80%. The “inhibition of 20 μM ADP-induced ex vivo platelet aggregation” value in the series on platelet aggregation (by 10 min after dosing) was found to be 95%. In addition, in series [11], the “APT402 plasma concentration over time” value was “maintained up to 120 min during infusion”. For the same molecule, in series [12], the “time by which detectable in the plasma after administration (ELISA)” value was at most 30 min. Besides, in the series with IVC thrombosis (1.0 mg/kg ip bolus daily for 2 days), the “reduction of thrombus weight” value is 53%. The “reduction of thrombus weight” value with IVC thrombosis (high dose: 0.2 mg/kg ip bolus then 0.09 mg/kg/h sc for 48 h) is reported as 65%. Moreover, the “reduction of thrombus weight” value in the series on IVC thrombosis (low dose: 0.2 mg/kg ip bolus then 0.03 mg/kg/h sc for 48 h) worked out at 44%. For the same molecule, in the series with IVC thrombosis (mouse, in vivo), the “prolongation of BT” value is listed as “did not cause detectable prolongation”, the “prolongation of TCT” value is given as “did not cause detectable prolongation” and the “prolongation of aPTT” value is listed as “did not cause detectable prolongation”. The bleeding time entry in the series with IVC thrombosis (mouse, in vivo, ip, 1 mg/kg) was “without increasing bleeding time”.
